T1: PN7740 amino acids 27-322 (yeast; human, UniProt P04386 768-881)
T1 construct: also called novel phosphatase
T1 sequence: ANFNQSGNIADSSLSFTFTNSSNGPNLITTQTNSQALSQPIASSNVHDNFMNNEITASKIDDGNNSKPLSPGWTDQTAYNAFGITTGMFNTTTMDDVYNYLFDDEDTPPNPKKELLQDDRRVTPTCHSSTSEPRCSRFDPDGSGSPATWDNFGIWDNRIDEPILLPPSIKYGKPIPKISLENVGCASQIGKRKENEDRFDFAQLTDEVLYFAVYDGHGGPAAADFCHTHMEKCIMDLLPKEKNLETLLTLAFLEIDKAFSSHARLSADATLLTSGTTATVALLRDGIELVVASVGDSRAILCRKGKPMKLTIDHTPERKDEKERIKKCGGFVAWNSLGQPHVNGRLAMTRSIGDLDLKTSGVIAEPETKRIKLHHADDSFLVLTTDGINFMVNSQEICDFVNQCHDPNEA

B1: SUR1, type-1 sulfonylurea receptor, amino acids 121-270 (other, yeast;human, UniProt P04386 768-881, looked up, not shown: small tags and cut ends)
chain: ANFNQSGNIADSSLSFTFTNSSNGPNLITTQTNSQALSQPIASSNVHDNFMNNEITASKIDDGNNSKPLSPGWTDQTAYNAFGITTGMFNTTTMDDVYNYLFDDEDTPPNPKKEVVYYHNIETSNFPKLLIALLVYWTLAFITKTIKFVKFLDHAIGFSQLRFCLTGLLVILYGMLLLVEVNVIRVRRYIFFKTPREVKPPEDLQDLGVRFLQPFVNLLSKGTYWWMNAFIKTAHKKPIDLRAIGKLPIAMRALTNYQRLCEAF
B2: Mint2 amino acids 1-210 (other, UniProt P04386 1-147, looked up)
chain: MKLLSSIEQACDICRLKKLKCSKEKPKCAKCLKNNWECRYSPKTKRSPLTRAHLTEVESRLERLEQLFLLIFPREDLDMILKMDSLQDIKALLTGLFVQDNVNKDAVTDRLASVETDMPLTLRQHRISATSSSEESSNKGQRQLTVSMAHRKLESVGSGMLDHRVRPGPVPHSQEPESEDMELPLEGYVPEGLELAALRPESPAPEEQECHNHSPDGDSSSDYVNNTSEEEDYDEGLPEEEEGITYYIRYCPEDDSYLEGMDCNGEEYLAHSAHPVDTDECQEAVEEWTDSAGPHPHGHEAEGSQDYPDGQLPIPEDEPSVLEAHDQEEDGHYCASKEGYQDYYPEEANGNTGASPY
notes: also called X11 beta
B3: KIAA0427 amino acids 364-589 (other, yeast;human, UniProt P04386 768-881, looked up, not shown: small tags and cut ends)
chain: ANFNQSGNIADSSLSFTFTNSSNGPNLITTQTNSQALSQPIASSNVHDNFMNNEITASKIDDGNNSKPLSPGWTDQTAYNAFGITTGMFNTTTMDDVYNYLFDDEDTPPNPKKETTTPQQNKMDKLIEILNSMRNNSSDVDTKLTTFMEEAQNSTNSEEMLGEIVRTIYQKAVSDRSFAFTAAKLCDKMALFMVEGTKFRSLLLNMLQKDFTVREELQQQDVERWLGFITFLCEVFGTMRSSTGEPFRVLVCPIYTCLRELLQSQDVKEDAVLCCSMELQSTGRLLEEQLPEMMTELLASARDKMLCPSESMLTRSLLLEVIELHANSWNPLTPPITQYY
B4: Presenilin 2 (PS2) amino acids 1-97 (other, UniProt P04386 1-147, looked up)
chain: MKLLSSIEQACDICRLKKLKCSKEKPKCAKCLKNNWECRYSPKTKRSPLTRAHLTEVESRLERLEQLFLLIFPREDLDMILKMDSLQDIKALLTGLFVQDNVNKDAVTDRLASVETDMPLTLRQHRISATSSSEESSNKGQRQLTVSMLTFMASDSEEEVCDERTSLMSAESPTPRSCQEGRQGPEDGENTAQWRSQENEEDGEEDPDRYVCSGVPGRPPGLEEELTLKYGAKHVIMLFVPVTL
notes: also called Presinilin 2
B5: Fe65 amino acids 360-552 (first phosphotyrosine binding domain, PTB) (other, UniProt P04386 1-147, looked up)
chain: MKLLSSIEQACDICRLKKLKCSKEKPKCAKCLKNNWECRYSPKTKRSPLTRAHLTEVESRLERLEQLFLLIFPREDLDMILKMDSLQDIKALLTGLFVQDNVNKDAVTDRLASVETDMPLTLRQHRISATSSSEESSNKGQRQLTVSPRNTNPGIKCFAVRSLGWVEMTEEELAPGRSSVAVNNCIRQLSYHKNNLHDPMSGGWGEGKDLLLQLEDETLKLVEPQSQALLHAQPIISIRVWGVGRDSGRERDFAYVARDKLTQMLKCHVFRCEAPAKNIATSLHEICSKIMAERRNARCLVNGLSLDHSKLVDVPFQVEFPAPKNELVQKFQVYYLGNVP
B6: glutathione-S-transferase M3 (GST trans. M3) amino acids 15-226 (other, yeast;human, UniProt P04386 768-881, looked up, not shown: small tags and cut ends)
chain: ANFNQSGNIADSSLSFTFTNSSNGPNLITTQTNSQALSQPIASSNVHDNFMNNEITASKIDDGNNSKPLSPGWTDQTAYNAFGITTGMFNTTTMDDVYNYLFDDEDTPPNPKKERGLAHAIRLLLEFTDTSYEEKRYTCGEAPDYDRSQWLDVKFKLDLDFPNLPYLLDGKNKITQSNAILRYIARKHNMCGETEEEKIRVDIIENQVMDFRTQLIRLCYSSDHEKLKPQYLEELPGQLKQFSMFLGKFSWFAGEKLTFVDFLTYDILDQNRIFDPKCLDEFPNLKAFMCRFEALEKIAAYLQSDQFCKMPINNKMAQWGNKPVC
B7: casein kinase II (CK2) amino acids 264-351 (other, yeast;human, UniProt P04386 768-881, looked up, not shown: small tags and cut ends)
chain: ANFNQSGNIADSSLSFTFTNSSNGPNLITTQTNSQALSQPIASSNVHDNFMNNEITASKIDDGNNSKPLSPGWTDQTAYNAFGITTGMFNTTTMDDVYNYLFDDEDTPPNPKKEIDLDPHFNDILGQHSRKRWENFIHSENRHLVSPEALDLLDKLLRYDHQQRLTAKEAMEHPYFYPVVKEQSQPCADNAVLSSGLTAAR
B8: BAT3 (HLA-B associated transcript) amino acids 740-1040 (other, UniProt P04386 1-147, looked up)
chain: MKLLSSIEQACDICRLKKLKCSKEKPKCAKCLKNNWECRYSPKTKRSPLTRAHLTEVESRLERLEQLFLLIFPREDLDMILKMDSLQDIKALLTGLFVQDNVNKDAVTDRLASVETDMPLTLRQHRISATSSSEESSNKGQRQLTVSFEPGADGALGFFGALLSLLCQNFSMVDVVMLLHGHFQPLQRLQPQLRSFFHQHYLGGQEPTPSNIRMATHTLITGLEEYVRESFSLVQVQPGVDIIRTNLEFLQEQFNSIAAHVLHCTDSGFGARLLELCNQGLFECLALNLHCLGGQQMELAAVINGRIRRMSRGVNPSLVSWLTTMMGLRLQVVLEHMPVGPDAILRYVRRVGDPPQPLPEEPMEVQGAERASPEPQRENASPAPGTTAEEAMSRGPPPAPEGGSRDEQDGASAETEPWAAAVPPEWVPIIQQDIQSQRKVKPQPPLSD
B9: stearoyl CoA desaturase (SCD2) amino acids 320-359 (other)
chain: ANFNQSGNIADSSLSFTFTNSSNGPNLITTQTNSQALSQPIASSNVHDNFMNNEITASKIDDGNNSKPLSPGWTDQTAYNAFGITTGMFNTTTMDDVYNYLFDDEDTPPNPKKETTFFIDCMAALGLAYDRKKVSKAAILARIKRTGDGNYKSG
notes: range 768-881;range 320-359; also called Delta(9) desaturase
B10: CIB amino acids 1-191 (other, UniProt P04386 1-147, looked up)
chain: MKLLSSIEQACDICRLKKLKCSKEKPKCAKCLKNNWECRYSPKTKRSPLTRAHLTEVESRLERLEQLFLLIFPREDLDMILKMDSLQDIKALLTGLFVQDNVNKDAVTDRLASVETDMPLTLRQHRISATSSSEESSNKGQRQLTVSMGGSGSRLSKELLAEYQDLTFLTKQEILLAHRRFCELLPQEQRSVESSLRAQVPFEQILSLPELKANPFKERICRVFSTSPAKDSLSFEDFLDLLSVFSDTATPDIKSHYAFRIFDFDDDGTLNREDLSRLVNCLTGEGEDTRLSASEMKQLIDNILEESDIDRDGTINLSEFQHVISRSPDFASSFKIVL
B11: Mint1 amino acids 739-837 (other, UniProt P04386 1-147, looked up)
chain: MKLLSSIEQACDICRLKKLKCSKEKPKCAKCLKNNWECRYSPKTKRSPLTRAHLTEVESRLERLEQLFLLIFPREDLDMILKMDSLQDIKALLTGLFVQDNVNKDAVTDRLASVETDMPLTLRQHRISATSSSEESSNKGQRQLTVSIVRCPPVTTVLIRRPDLRYQLGFSVQNGIICSLMRGGIAERGGVRVGHRIIEINGQSVVATPHEKIVHILSNAVGEIHMKTMPAAMYRLLTAQEQPVYI
notes: also called X11 alpha

Key:
[1] = biological target: T2, Focal adhesion kinase 2 (FAK2) amino acids 673-866 (yeast, UniProt P04386 1-147; Q14289 673-866); experiment: yeast two-hybrid
T2 construct: also called PYK2; CAKβ
Text: (§1) The principles and methods of the yeast two-hybrid systems have been described in detail (Bartel and Fields, 1997). The following is thus a description of the particular procedure that was used, which was applied to all proteins.
(§2) The cDNA encoding the bait protein was generated by PCR from brain cDNA. Gene-specific primers were synthesized with appropriate tails added at their 5′ ends to allow recombination into the vector pGBTQ. The tail for the forward primer was 5′-[…]-3′ (SEQ ID NO: 1) and the tail for the reverse primer was 5′-[…]-3′ (SEQ ID NO:2). […] The new construct was selected directly in the yeast J693 for its ability to drive tryptophane synthesis (genotype of this strain: Mat α, ade2, his3, leu2, trp1, URA3::GAL1-lacZ LYS2::GAL1-HIS3 gal4del gal80del cyhR2). In these yeast cells, the bait is produced as a C-terminal fusion protein with the DNA binding domain of the transcription factor Gal4 (amino acids 1 to 147). A total human brain (person) cDNA library cloned into the yeast expression vector pACT2 was purchased from Clontech (human brain […] cDNA, cat. # HL4004AH), transformed into the yeast strain J692 (genotype of this strain: Mat α, ade2, his3, leu2, trp1, URA3::GAL1-lacZ LYS2::GAL1-HIS3 gal4del gal80del cyhR2), and selected for the ability to drive leucine synthesis. In these yeast cells, each cDNA is expressed as a fusion protein with the transcription activation domain of the transcription factor Gal4 (amino acids 768 to 881) and a 9 amino acid hemagglutinin epitope tag. J693 cells […] expressing the bait were then mated with J692 cells […] expressing proteins from the brain library. The resulting diploid yeast cells expressing proteins interacting with the bait protein were selected for the ability to synthesize tryptophane, leucine, histidine, and β-galactosidase.

[2] = biological target: phosphodiesterase 9A (PDE-9A) amino acids 269-593 (yeast; human, UniProt P04386 768-881; O76083 269-593); experiment: yeast two-hybrid
Text: as §1, §2

[3] = biological target: T3, Mint1 amino acids 447-758 (yeast, UniProt P04386 1-147; Q02410 447-758); experiment: yeast two-hybrid
T3 construct: also called X11 alpha
Text: as §1, §2

[4] = biological target: glyceraldehyde-3-phosphate dehydrogenase (GAPDH) amino acids 2-190 (yeast; human, UniProt P04386 768-881; P04406 2-190); experiment: yeast two-hybrid
Text: as §1, §2

[5] = biological target: T1, PN7740 amino acids 27-322; experiment: yeast two-hybrid
Text: as §1, §2

[6] = biological target: Focal adhesion kinase (FAK) amino acids 724-1052 (yeast, UniProt P04386 1-147; Q05397 724-1052); experiment: yeast two-hybrid
Text: as §1, §2

[7] = biological target: transthyretin (TTH) amino acids 7-148 (yeast; human, UniProt P04386 768-881; P02766 7-147); experiment: yeast two-hybrid
Text: as §1, §2

CIB amino acids 1-191 = biological target: B10; experiment: yeast two-hybrid, Gal4, human brain cDNA library
[8] = biological target: T4, mixed lineage kinase 2 (MLK2) amino acids 305-549 (yeast; human, UniProt P04386 768-881; Q02779 305-549); experiment: yeast two-hybrid
T4 construct: also called MST; MAP3K10
Text: as §1, §2

[9] = biological target: T5, glutamine synthase (GS) amino acids 49-212 (yeast; human, UniProt P04386 768-881; P15104 49-212); experiment: yeast two-hybrid
T5 construct: also called glutamine synthetase; glutamate ammonia ligase
Text: as §1, §2

Binder: B1
- binding result [1]: binds

Binder: B2
- binding result [2]: binds

Binder: B3
- binding result [3]: binds

Binder: B4
- binding result [4]: binds

Binder: B5
- binding result [5]: binds

Binder: B6
- binding result [6]: binds

Binder: B7
- binding result [6]: binds

Binder: B8
- binding result [7]: binds

Binder: B9
- binding result (CIB amino acids 1-191): binds

Binder: B10
- binding result [8]: binds

Binder: B11
- binding result [9]: binds

From patent publication US20020115606A1 (MYRIAD GENETICS, published 2002)
